± gives the standard deviation of the averaged measurements.
System: ATP
Experiment: switch fluorescence ratio, 500 uM ATP over buffer (Cy3 cluster intensity, sum of 5 cycles each) (fold (ratio)); higher = stronger signal-on switching upon ATP binding; sequences stand for … in TCGTCGGCAGCGTCAGATGTGTATAAGAGACAGTTTTTTTTTTTTTTTTTTTTTTTTT…TC
Settings: aptamer strand: ATP DNA aptamer (quencher-CACCTGGGGGAGTATTGCGGAGGAAGG + anchor), 100 nM annealed; ATP concentration: 500 uM
Outline: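 After annealing to 100 nM quencher-labelled ATP aptamer, Cy3-labelled switching-strand clusters on a modified Illumina MiSeq flow-cell were imaged in selection buffer. A second image followed after 15 min with 500 uM ATP at 22 °C, and five such buffer/ATP cycles were done, each separated by NaOH stripping and re-annealing. The fluorescence ratio, averaged per switch-domain sequence, is summed target-cycle over summed buffer-cycle Cy3 intensity per cluster, with clusters outside 100-1000 RFU excluded.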
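Note: ATP exposure 15 min at 22 °C before imaging.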

Row | Sequence | switch fluorescence ratio
1 | TGAAGGATGG | 1 ± 0.027
2 | TGAAGGCAGG | 1.01 ± 0.072
3 | TGAAGGCCTT | 0.9953 ± 0.0011
4 | TGAAGGGAAA | 1 ± 0.051
5 | TGAAGGGGAG | 1.01 ± 0.069
6 | TGAAGGGGGG | 0.984 ± 0.034
7 | TGAAGGGTGC | 1.02 ± 0.054
8 | TGAAGGTCGT | 0.99 ± 0.029
9 | TGAAGGTTGG | 1.02 ± 0.025
10 | TGAAGTCG | 0.999 ± 0.027
11 | TGAAGTGGGG | 0.954 ± 0.016
12 | TGAAGTTTAC | 2.03 ± 1.4
13 | TGAAGTTTGC | 0.999 ± 0.01
14 | TGAAGTTTTT | 1.02 ± 0.064
15 | TGAATACGGG | 1.006 ± 0.004
16 | TGAATCAATT | 1.06 ± 0.026
17 | TGAATCAGG | 1.01 ± 0.073
18 | TGAATCCTCG | 1.05 ± 0.012
19 | TGAATGCTGA | 0.961 ± 0.017
20 | TGAATGGTTT | 0.997 ± 0.031
21 | TGAATGTAGC | 0.9781 ± 0.0024
22 | TGAATTTGGG | 0.997 ± 0.064
23 | TGACAATCCT | 1.05 ± 0.016
24 | TGACAGTTAT | 1.06 ± 0.038
25 | TGACCCGTAC | 2.64 ± 1.7

Row | Sequence | switch fluorescence ratio
26 | TGACCGCTTT | 1.12 ± 0.029
27 | TGACCGTAGA | 1.03 ± 0.028
28 | TGACCTCTTA | 0.992 ± 0.024
29 | TGACGGGCAG | 1.07 ± 0.015
30 | TGACGGGGTA | 1.04 ± 0.12
31 | TGACGGGTTA | 1.02 ± 0.022
32 | TGACTATT | 0.9948 ± 0.004
33 | TGACTCGGGC | 0.993 ± 0.022
34 | TGACTGGGTT | 1.02 ± 0.047
35 | TGACTTGGGT | 0.991 ± 0.01
36 | TGACTTTCGC | 1.06 ± 0.028
37 | TGACTTTTTA | 0.9933 ± 0.0075
38 | TGAGAAATGG | 1.02 ± 0.036
39 | TGAGAAGGAA | 1.033 ± 0.0093
40 | TGAGACATGC | 0.994 ± 0.038
41 | TGAGACTGGG | 0.993 ± 0.02
42 | TGAGACTGGT | 0.999 ± 0.023
43 | TGAGAGCTGA | 0.9825 ± 0.0063
44 | TGAGAGCTGG | 0.98517 ± 0.00094
45 | TGAGAGGGTG | 1.04 ± 0.041
46 | TGAGAGGTTA | 1.04 ± 0.013
47 | TGAGATAGAG | 0.975 ± 0.018
48 | TGAGATTAGT | 1.01 ± 0.026
49 | TGAGCACAGG | 1.455 ± 0.0091
50 | TGAGCCGCGG | 1.004 ± 0.0095

Row | Sequence | switch fluorescence ratio
51 | TGAGCTGGTA | 0.981 ± 0.034
52 | TGAGCTTAGA | 1.02 ± 0.054
53 | TGAGGAAAAG | 1.006 ± 0.0065
54 | TGAGGAAAGG | 1.17 ± 0.25
55 | TGAGGAAGGC | 0.992 ± 0.039
56 | TGAGGACAGT | 1 ± 0.018
57 | TGAGGCACGG | 1.05 ± 0.056
58 | TGAGGCAGAG | 1.06 ± 0.015
59 | TGAGGGCGAA | 0.984 ± 0.01
60 | TGAGGGGAAG | 0.986 ± 0.021
61 | TGAGGGGAAT | 1 ± 0.012
62 | TGAGGGGCGG | 0.998 ± 0.039
63 | TGAGGGGCTT | 1 ± 0.073
64 | TGAGGGGGGG | 0.999 ± 0.034
65 | TGAGGGGT | 0.958 ± 0.027
66 | TGAGGGGTTT | 0.992 ± 0.015
67 | TGAGGGTCGG | 0.972 ± 0.041
68 | TGAGGTACGG | 1.01 ± 0.029
69 | TGAGGTAGCG | 0.981 ± 0.034
70 | TGAGGTGTTT | 0.992 ± 0.023
71 | TGAGGTTAGT | 1.09 ± 0.19
72 | TGAGGTTGAG | 1.03 ± 0.059
73 | TGAGTAAAGC | 1.03 ± 0.062
74 | TGAGTACTGA | 1.02 ± 0.024
75 | TGAGTAGATA | 1.01 ± 0.018

Row | Sequence | switch fluorescence ratio
76 | TGAGTATAGG | 1.009 ± 0.003
77 | TGAGTATTTA | 0.993 ± 0.057
78 | TGAGTCACCT | 1.16 ± 0.037
79 | TGAGTCTAG | 0.997 ± 0.038
80 | TGAGTCTTAA | 1.01 ± 0.027
81 | TGAGTGATTG | 1.04 ± 0.052
82 | TGAGTGCAAA | 0.9933 ± 0.0023
83 | TGAGTGCCTA | 0.973 ± 0.047
84 | TGAGTGCTGT | 0.968 ± 0.02
85 | TGAGTGGGAG | 0.998 ± 0.021
86 | TGAGTGGGTT | 0.975 ± 0.031
87 | TGAGTGTGAG | 0.985 ± 0.035
88 | TGAGTTAAGG | 0.986 ± 0.012
89 | TGAGTTAGAG | 1.02 ± 0.026
90 | TGAGTTAGTT | 1.01 ± 0.016
91 | TGAGTTATGG | 0.968 ± 0.03
92 | TGAGTTGACT | 1 ± 0.015
93 | TGAGTTGATT | 1.01 ± 0.069
94 | TGATAAAGTT | 1.03 ± 0.034
95 | TGATAACTGG | 0.9745 ± 0.0064
96 | TGATAATAGG | 0.989 ± 0.021
97 | TGATAATGGG | 0.982 ± 0.036
98 | TGATACTGCT | 0.961 ± 0.035
99 | TGATAGGTGG | 1 ± 0.028
100 | TGATATGTGG | 1.01 ± 0.038
